Source: patent US11898183B2, “Programmed microorganisms to attenuate a disease” (priority 2020, dated 2024)

B1: 2-ODD Nitrospira japonica: 2-oxoglutarate/Fe(II)-dependent dioxygenase (2-ODD) from Nitrospira japonica (protein)
chain: MMGGAMTTQTLDTIAEAVDQAVARLDFDRLHREYWEQNEFLVIPQFLDRAMVEEWLVPQAQGVKGDLNRNYIPGHKKGGSVSYYTVMEKAPRFLDLYRSQVFIEFLSRLSHAKLRLCPDNDPHSCALYYYTEPGDHIGFHYDTSYYKGSRYTILMGLVDQSTHCKLVCELFKDDPVRPSKRLELITQPGDMVIFNGDKLWHAVTPLGPNEERIALTMEYVTNPDMGTFKRLYSNLKDSFAYFGLRAVFKRALSLPRR
modifications: Depicts the nucleic acid sequence of 2-oxoglutarate/Fe(II)-dependent dioxygenase (2-ODD) of Nitrospira japonica
notes: 2-oxoglutarate/Fe(II)-dependent dioxygenase (2-ODD) from Nitrospira japonica
B2: CYP82D Panax ginseng: CYP82D from Panax ginseng (protein)
chain: METFLAQLYSTTTIAALFVLLVLYYFSPWTRINKKNVAPEAGGGWPIIGHLHLLGGSKLPHLVFGSMADKYGPIFTVRLGVQRSLVVSSWEMVKDIFTTNDVIVSGRPKFLAAKHLSYNYAMFGFSPYGSFWLELRKITSLQLLSNRRLELLKHVRVSEMEISMRQLYKLWSEKKNGSGRVLMDMKKWFGELNLNVTFRMVAGKRYFGGGAASNDEEARRCRRVVREFFRLLGVVVVADSLPFLRWLDLGGYERAMKETAREMDSIVSVWLEEHRIKSDSSGDDANMEQDFMDVMLSAVKNVDLCGFDAHTVIKATCMVIISSGTDTTTVELTWALCLLLNNRHVLKKAQEELDNVVGKQRRVKESDLNNLIYLQAIVKETLRLYPAGQLGGQREFSDDCTVGGYHVPKRTRLVVNLWKLHRDPRIWSDPTEFRPERFLERHKEIDVKGQHFELIPFGAGRRVCPGITFGLQMFHLVLASLLHGFDISTPSDAPVDMAEGAGLTNAKITPLEILIAPRLSPSLYE
modifications: Panax ginseng
B3: UGT Cicer arietinum: Glycosyltransferase (UGT) from Cicer arietinum (protein, listed as Cicer arietinum)
chain: MKKIEVVFIPSPGVGHLISTLEFANLLINRNNRLNITVLVINFPKTVEKQTNYSLTESENLHVINLPQTTTHVPSTSDVGNSISALVETQKSNVKQAVSNLTGTLAAFVVDMFCTTMIDVANELGVPSLVFFTSGVAFLGLMLHLHTIWEQQDTELLLQQDELDIPSFANPVATNTLPTLVLRKEWESSFIKYGNGLKKASGIIVNSFHELEPHAVRSFLEDPTLRDLPIYPVGPILNPKSNVDSDDVIKWLDDQPPSSVVFLCFGSMGTFDEEQVREIALAIERSGVRFLWSLRKPQPQGTMVPPSDYTLSQMLEVLPEGFLDRTANIGRVIGWAPQVQVLAHQATGGFVSHCGWNSTLESIYYGVPIATWPLFAEQQTNAFELVRELKIAVEIALDYRLEFDIGRNYLLDADKIERGIRGVLDKDGEVRKKVKEMSQKSRNVLLEGGSSYTYLGQLIDYITNQV
B4: PAL Ganoderma sinense: Phenylalanine ammonia-lyase (PAL) from Ganoderma sinense (protein)
chain: MPGYTLTKTQSTSTFEPSPVTLKKAAVSSPLHAEPELPKQSSAPTLLHKFVEAHRALNNYKQGQPIVVDGQTLSIPAVAAVARYNADVVLDDSSDIQTRVLKSRQVIVDKVSSQKSVYGVSTGFGGSADTRTSDPLTLGLALFQHQHCGVLPSDTDSVPVALPLLDPLTSTSMPESWVRGAILIRMNSLIRGHSGVRWELIERMSALLRENIVPLVPLRGSISASGDLSPLSYIAGLLIGNPSIRVFDGPSTFRGRRIVSSREALSAHHIEPISLGSKEHLGILNGTAFSASVGALAVHEAVHLSLLGQVCTAMCTEAMLGAKGSFAPFIHSVARPHPGQVEVAETVTDLLEGSHFAVTAEEEKHISADIGELRQDRYPLRTSAQFLGPQVEDVLSAFAAITIECNSTTDNPLIDGETGEVHHGGNFQAMSVTNAMEKTRLAMHHIGKLLFAQCTELLNPSMNRGLPPNLAATDPSHNYFAKGVDIHAAAYVGELGYLANPVSTHVQSAEMHNQAVNSLALISARATLNSLEVLSILTSSFLYVLCQALDLRAMQHEFELEVDGILRQQLALSFGRHLSAADLDALFSVLSRHVRRSLETTSTMDAALRMRTVAAATTTPFVDFCAKRNTSLDLDEIVAFRAGLSEGMVGSLVRLREEYLRGSKGPAPAAKYLGRSRAVYEFVRVTLGIRMHGSENLHDFKEGPGVEDPTIGQDIALIHEAIRDGKMQDVVVGIFA
modifications: Ganoderma sinense
B5: C4H4CL Azospirillum sp.: Cinnamate 4 hydroxylase 4 coumarate coenzyme ligase fusion (C4H4CL), Azospirillum sp. (protein)
chain: MDLLLLEKTLLALFIAATIAITISKLRGKRFKLPPGPIPVPVFGNWLQVGDDLNHRNLTDLAKRFGDIFLLRMGQRNLVVVSSPELAKEVLHTQGVEFGSRTRNVVFDIFTGKGQDMVFTVYGTLAEMRRIMTVPFFTNKVVQQYRFGWEFEAQSVVDDVKKNPEACSSGIVLRRRLQLMMYNIMYRIMFDRRFESEEDPLFVKLKALNGERSRLAQSFEYNYGDFIPILRPFLKGYLKLCKEVKDRRLQLFKDYFVDERKKLGSTKSTTNEGLKCAIDHILDAQQKGEINDDNVLYIVENINVAAIETTLWSIEWGIAELVNHQKIQNKVREEIDRVLGPGHQVTEPDLQKLPYLQAVIKETLRLRMAIPLLVPHMNLHDAKLSGFDIPAESKILVNAWWLANNPAQWKKPEEFRPERFLEEESHVEANGNDFRYLPFGVGRRSCPGIILALPILGITLGRLVQNFELLPPPGQSKIDTAEKGGQFSLHILKHSTIVCKPRSFNGGGGSGGGGSGGGGSMTIQRWWRNRESLNRVLCDLLAGEFARLRPGGSPPAHPHRWPETLPLGPDGVGADSLDLLQLAAALNEALHLHRSGIEDYLLMHRTVGDWLDVCEAALGRFDGALSFRTSGSTGEGKRCEHPLAALEEEADALAALLSGGAEAPRRVVSVVPAHHIYGFLFTVLLPDRLAVPVVDGRGTSPGGLAARLGPGDLVVAHPDWWGALLRSGAALPDGVTGTSSTAPCPPDTARGVRGVGLARLVEVFGSSETAGLGWRESPDAPFRPFPWWRFGDDGRVTRRLADGTVLSATLQDRLSHDEEGFRPSGRLDTVVQVGGVNVSLAGVQAHLAGHPDVEAAAVRLMRPEEGTRLKAFIVPARTAPPREELYRRLTDWIEATLPAPHRPRALAFGPALPVNGMGKPCDWPLATCR
modifications: Depicts the nucleic acid sequence of Cinnamte 4 hydroxylase 4 coumarate coenzyme ligase fusion (C4H4CL) of Azospirillum sp.
B6: HCTC3H Coffea canephora: hydroxycinnamoyl-CoA:quinate hydroxycinnamoyltransferase p-coumaroyl quinate 3′-hydroxylase fusion (HCTC3H), Coffea canephora (protein, listed as Coffea canephora)
chain: MKIEVKESTMVRPAQETPGRNLWNSNVDLVVPNFHTPSVYFYRPTGSSNFFDAKVLKDALSRALVPFYPMAGRLKRDEDGRIEIECNGEGVLFVEAESDGVVDDFGDFAPTLELRRLIPAVDYSQGISSYALLVLQVTYFKCGGVSLGVGMRHHAADGFSGLHFINSWSDMARGLDVTLPPFIDRTLLRARDPPQPQFQHIEYQPPPALKVSPQTAKSDSVPETAVSIFKLTREQISALKAKSKEDGNTISYSSYEMLAGHVWRCACKARGLEVDQGTKLYIATDGRARLRPSLPPGYFGNVIFTATPIAIAGDLEFKPVWYAASKIHDALARMDNDYLRSALDYLELQPDLKALVRGAHTFKCPNLGITSWVRLPIHDADFGWGRPIFMGPGGIAYEGLSFILPSPTNDGSMSVAISLQGEHMKLFQSFLYDIGGGGSGGGGSGGGGSMALLLILLPVAFIFLAYSLYERLRFKLPPGPRPKPVVGNIYDIKPVRFKCYAEWSKLYGPIFSVYFGSQLNTVVNTAELAKEVLKDNDQQLADRYRSRPSARMSRNGQDLIWADYGPHYVKVRKLCNLELFTPKRLEGLRPLREDEVTAMVDSIFKDCTKPENKGKSLLMRNYLGSVAFNNITRLTFGKRFMNSEGVVDEQGQEFKGIVSNGIRIGAKLSVADHIPWLRWMFVGENEDLDKHNARRDKLTRMIMEEHTLARQKSGNTKQHFVDALLTLQKQYELSDDTVIGLLWDMITAGMDTTTISVEWAMAELVKNPRVQQKAQEELDRVIGSDRIMTEADFAKLPYLQCVAKEALRLHPPTPLMLPHRANANVKIGGYDIPKGSIVHVNVWAIARDPAAWKNPLEFRPERFLEEDVDIKGHDYRLLPFGAGRRICPGAQLALNLVTSMLGHLLHHFTWSPPPGVRPEEIDLEESPGTVTYMRTPLQAVATPRLPAHLYNRVPVE

tested on: pathway specific substrates; experiment: Enzyme functionality of pathway enzyme homologs and fusion constructs in lysed E. coli cell extracts, product by HPLC; type: biochemical, E. coli BL21; details: protein expressed in E. coli, lysed cell extract, pathway specific substrate, HPLC
Experimental: As per one of the possible implementations of the present disclosure, two proteins—cinnamate-4-hydroxylate (C4H) and 4-coumaroyl CoA-ligase (4CL) were expressed as one fusion protein. Also, other two proteins which were expressed as one fusion protein were hydroxycinnamoyl-CoA quinate hydroxycinnamoyltransferase (HCT) and p-coumaroyl quinate 3′-hydroxylase (HCTC3H). The fusion gene and the corresponding fusion protein was prepared using the following method. […] The enzyme fusion constructs were made for the selected genes (Table 5). Pathway genes and the fusion constructs were individually cloned in E. coli expression vector pET28+ under T7 promoter and transformed in E. coli BL21 cells. Recombinant bacterial cells were induced with IPTG and enzyme functionality was tested with pathway specific substrates (Table 5) using lysed E. coli cell extracts. HPLC analysis was carried out to quantify the product formation and in turn shortlisting of efficient enzymes for functional pathway assembly towards Etoposide in E. coli.
The E. coli transformants were grown overnight at 37° C. in 1 ml of M9 minimal media containing ampicillin (100 mg/1), in 96-well format. The next day, 150 μl of each culture was inoculated into 3 ml M9 minimal media containing ampicillin (100 mg/1), IPTG 0.1 mM in 24-well format, and incubated at 30° C. and 200 rpm for ˜20 hours. The following day, cells were spun down and pellets were resuspended in 100 μl of lysis buffer containing 10 mM Tris-HCl pH 8, 5 mM MgCl2, 1 mM CaCl2) and complete mini protease inhibitor EDTA-free (3 tablets/100 ml) (Hoffmann-La Roche, Basel, Switzerland) and frozen at −80° C. for at least 15 minutes to promote cell lysis. Pellets were thawed at room temperature and 50 μl of DNase mix (1 μl of 1.4 mg/ml DNase in H2O (˜80000 u/ml), 1.2 μl of MgCl2 500 mM and 47.8 μl of 4×PBS buffer solution) was added to each well. Plates were shaken at 500 rpm for 5 min at room temperature to allow degradation of genomic DNA. Plates were spun down at 4000 rpm for 30 min at 4° C. and six μl of the lysates were used in in vitro using appropriate substrates for enzymes as per Table 6. In each case, the resulting compounds were measured by HPLC. Results were analysed in comparison with the lysates expressing the corresponding controls (the empty plasmid). […]

Row | Molecule | enzyme activity
1 | B1 | 88%
2 | B2 | around 93%
3 | B3 | 97%
4 | B4 | 98%
5 | B5 | 97%
6 | B6 | 89%
